Results on 16 molecules are retold here after US20240076398A1 (VISTERRA, published 2024).

No end group written: not given here.

Assay in all cases: BLI, peptide on streptavidin sensor
(Biolayer interferometry detects binding as a change in optical thickness at a sensor tip.)

The target in experiment [1] is T1, biotinylated N-terminal peptide of C5aR1 with tyrosine sulfation (human, tyrosine sulfation (the sulfated tyrosines of C5aR1 are Y11 and Y14); biotinylated).
T1 construct: also called Sulfated N-terminal
T1 peptide: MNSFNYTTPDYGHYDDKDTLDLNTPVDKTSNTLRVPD
The text has this: (§1) The epitope mapping was undertaken, using biolayer interferometry, on a series of exemplary anti-C5aR1 antibodies generated as described in Example 1. Briefly, for each antibody, biotinylated peptides representing ECL2, the N-terminus with tyrosine sulfation, and the N-terminus without tyrosine sulfation, were immobilized in a streptavidin biosensor. Subsequently, the biosensor was exposed to […] of antibody to detect antibody binding to the immobilized peptide. The results of the epitope mapping study are shown in Table 4 (“+” indicates binding to the listed peptide; “−” indicates lack of binding to the listed peptide).

Experiment [2] addresses T2, biotinylated N-terminal peptide of C5aR1 without tyrosine sulfation (human, biotinylated).
T2 construct: also called Non-sulfated N-terminal
T2 peptide: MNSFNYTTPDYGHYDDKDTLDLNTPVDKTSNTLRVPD
Excerpt: as §1

In experiment [3] the target is T3, biotinylated cyclic ECL2 peptide of C5aR1 (human, also: biotinylated, position not given here, cyclic, way of cyclisation not given here).
T3 peptide: RVVREEYFPPKVLC
Excerpt: as §1

B1: antibody 317 (antibody, V domains shown)
VH: QVQLQQPGAELVMPGASVKLSCKASGYTFTSYWLHWVRQRPGQGLEWIGEIDPSDGYSNHNQKFKGKATLTVDKSSSTAYMQLSSLTSEDSAVYYCATEGFWGQGTTVTVSS
VL: DIVMTQSPSSLSVSAGEKVTMSCKSSQSLLKSGNQKNYLAWHQQKPGQPPKLLIYGASTRESGVPDRFTGSGSGTDFTLTISSVQAEDLAVYYCQNDHSHPYTFGGGTKLEIK
Consider B1, for which the binding result in experiment [1] and in experiment [2] was “no binding (tested: 10 gg/mL (so in the source))” in each case.

B2: Clone_184 (antibody, V domains shown)
VH: QVQLQQSGAELVKPGASVKISCKASGYAFSRYWMNWVKQRPGKGLEWIGQIYPGDGDTKYNGKFKGKATLTADKSSSTAYMQLNSLTSEDSAVYFCTRSLGVWGTGTTVTVSS
VL: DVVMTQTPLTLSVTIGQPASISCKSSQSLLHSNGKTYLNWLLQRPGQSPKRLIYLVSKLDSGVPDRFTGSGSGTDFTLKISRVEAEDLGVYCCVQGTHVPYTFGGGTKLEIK
Consider B2, for which the binding result in experiment [3] is recorded as “no binding (tested: 10 gg/mL (so in the source))”.

B3: Clone_511 (antibody, V domains shown)
VH: QVQLQQSGAELAKPGASVKLSCKTSGYTFTNYWMHWIKQRPGLGLEWIGYINPSGDYTKHNQKFKDKATLTADRSSSTAYMQLSSLTYEDSAVYYCARVPLSYGSGNGPYYFDYWGQGTTLTVSS
VL: DVVMTQTPLSLPVSLGDHASISCRSSQSLVHSNGNIYLHWYLQRPGQSPKLLIHKVSNRFSGVPDRFSGSGSGTDFTLKISRVEAEDVGIYFCSQSTLVPLTFGSGTKLELK
On to B3, for which the binding result in experiment [1] and in experiment [2] was “no binding (tested: 10 gg/mL (so in the source))” each time.

B4: Clone_518 (antibody, V domains shown)
VH: QVQLQQSGAELAKPGASVKLSCKTSGYTFTNYWMHWIKQRPGLGLEWIGYINPSGDYTKHNQKFKDKATLTADRSSSTAYMQLSSLTYEDSAVYYCARVPLSYGSGNGPYYFDYWGQGTTLTVSS
VL: DVVMTQTPLSLPVSLGDHASISCRSSQSLVHSNGNTYLHWYLQRPGQSPKLLIHKVSNRFSGVPDRFSGSGSGTDFTLKISRVEAEDVGIYFCSQSTLVPLTFGSGTKLELK
As to B4, the binding result in experiment [1] and in experiment [2] was “no binding (tested: 10 gg/mL (so in the source))” throughout.

B5: Clone_588 (antibody, V domains shown)
VH: DVQLQESGPGLVKPSQSLSLTCTVTGYSITSDYAWNWIRQFPGNKLEWMGYISYSGSIRYNPSLKSRISITRDTSKNQFFLQLNSVTTEDTATYYCAITTGGYFDYWGQGTTLTVSS
VL: DIQMTQSTSSLSASLGDRVTISCRASQDISNYLNWYQQTPDGTVKLLIYQISRLHSGVPSRFSGSGSGTDYSLTISNLEEEDIANYFCQQGNSLPPTFGGGTKVEIK
With B5, the binding result in experiment [1] and in experiment [2] was “no binding (tested: 10 gg/mL (so in the source))” in each case.

B6: antibody 343 (antibody, V domains shown)
VH: QVQLQQSGAELVKPGASVKLSCKASGYTFTEYTIHWVNQRSGQGLEWIGWFYPGSGSIKYNEKFKDKATLTADKSSHTVYMELSRLTSEDSAVYFCARHGNYYDGSWFAYWGQGTLVTVSA
VL: DVQITQSPSYLAASPGETITINCRASKSISKYLAWYQEKPGKTNKLLIYSGSTLQSGIPSRFSGSGSGTDFTLTISSLEPEDFAMYYCQQHDEYPWTFGGGTKLEIK
For B6, the binding result in experiment [1] and in experiment [2] was “no binding (tested: 10 gg/mL (so in the source))” each time.

B7: Clone_336_V2-1 (antibody, V domains shown)
VH: QVQLKQSGPGLVQSSQSLSITCTVSGFSLISYGVHWVRQSPGKGLEWLGVIWSGGSTDYNAAFKSRLSITKDNSKSQVFFKMNSLQADDTAIYYCAKNSQLGNAMDYWGQGTTVTVSS
VL: DIVMSQSPSSLAVSAGEKVTMSCKSSQSLLSSRTRKNYLAWYQQKPGQSPKLLIYWASTRESGVPDRFTGSGSGTDFTLTISSVQAEDLALYFCNQSYDLLTFGAGTKLEIK
Take B7: the binding result in experiment [1] and in experiment [2] was “no binding (tested: 10 gg/mL (so in the source))” each time.

B8: Clone_79 (antibody, V domains shown)
VH: QVQLKESGPGLVAPSQSLSITCTVSGFSLTSYAISWVRQPPGKGLEWLGVIWTGGGTKYNSALKSRLSISKDNSKSHVFLKMNSLQSDDTARYYCARDGDYVYYAMAYWGQGTTVTVSS
VL: DVVMTQTPLSLPVSLGDQASISCRSSQSLVHSNGNTYLHWYLQKPGQSPKLLIYKVSNRFSGVPDRFSGSGSGTDFKLKISRVEAEDLGVYFCSQSTHVPPTFGGGTKLEIK
notes: also called antibody 79
In the case of B8, the binding result in experiment [1] and in experiment [2] was “no binding (tested: 10 gg/mL (so in the source))” each time.

B9: Clone_329 (antibody, V domains shown)
VH: QVQLQQSGAELTKPGASVKLSCKASGYTFTNYWMHWVKQRPGQGLEWIGYLNPSSGYTKYNQKFKDKATLTADKSSSTAYMQLNSLTYEDSAVYYCTRSGGDNYGNPYYFDRWGQGTTVTVSS
VL: DVVMTQTPLSLTVSLGDQASISCRSSQSLVHSNGNTYLHWYLQKPGQSPKFLIYKVSNRFSGVPDRFSGSGSGTDFRLKISRVEAEDLGVYFCSQSTLVPLTFGAGTKLEIK
notes: also called Ab329; mAb329
Consider B9, for which the binding result in experiment [1] and in experiment [2] was “no binding (tested: 10 gg/mL (so in the source))” in each case.

B10: Clone_583 (antibody, V domains shown)
VH: EVQLVESGGGLVKPGGSLKLSCAASGFTFNAYAMSWVRQTPEKRLEWVASISTGGNTYCPDSVKDRFTVSRDNVRNILYLQMSSLRSEDTAMYYCTRGYQRFSGFAYWGQGTLVTVS
VL: DVVMTQTPLSPPVSLGYQASISCRSSQSLVHSNGNTYLNWYLQKPGQSPKLLIYKVSNRLSGVPDRFSGSGSGTDFTLKISRVETEDLGVYFCSQSTHVPYTFGGGTKLEIK
notes: also called Ab583; mAb583
As to B10, the binding result in experiment [3] is “no binding (tested: 10 gg/mL (so in the source))”.

B11: Clone_429 (antibody, V domains shown)
VH: QVQLQQSGAELAKPGASVKLSCKASGYTFSSYWIHWVKQRPGQGLEWIGYINPRGDYTKYNQKFKDKATLTADKSSSTAFMQLSSLTYEDSAVYYCVRVTGSEGPYYFDYWGQGTTLTVSS
VL: DVVMTQTPLSLPVSLGDQASISCRSSQSLVHSNGNTYLQWYLQKPGQSPKLLIYKVSNRFSGVPDRFSGSGSGTEFTLKIRRVEAEDLGVFLCSQSTLVPLTFGAGTKLELK
As for B11, the binding result in experiment [1] and in experiment [2] was “no binding (tested: 10 gg/mL (so in the source))” in each case.

B12: Clone_584 (antibody, V domains shown)
VH: DVQLQESGPDLVKPSQSLSLTCTVTGYSITSGYSWHWIRQSPGNKLEWLAYIHNSGSTNYNPSLKSRISITRDTSKNQFFLKLNSVTTEDTATYYCARSIGDYWGQGTTLAVSS
VL: DVVMTQTPLSLPVSLGDRASISCRSGQSLVHSNGNTYLHWYLQRPGRSPNLLIYKVSNRFSGVPDRFSGSGSGTDFTLKISRVEAEDLGVYFCSQSTHVPWTFGGGTKLEIK
In the case of B12, the binding result in experiment [1] and in experiment [2] was “no binding (tested: 10 gg/mL (so in the source))” each time.

B13: Clone_11_V2 (antibody, V domains shown)
VH: QVQLQQSGPELVKPGASVKISCKASGYSFSSSWMNWVKQRPGKGLEWIGRISPGDGDTRYSGKFKGKATLTADKSSSTAYMQVTSLTSEDSAIYFCVRFLITSTRYVMDYWGQGTTVTVSS
VL: DVVMTQTPLSLPVSLGDQASISCRSSQSLVHSNGNTYLHWYLQKPGQSPKLLIYKVSNRFSGVPDRFSGSGSGTDFTLKISRVEAEDLGVYFCSQSTLVPPTFGGGTKLEIK
notes: also called Ab11v2
Take B13: the binding result in experiment [1] and in experiment [2] was “no binding (tested: 10 gg/mL (so in the source))” throughout.

B14: Clone_66 (antibody, V domains shown)
VH: QVQLQQSDAELVKPGASVKISCKASGYTFIDHAIHWVKQRPEQGLEWIGYISPGNGEIKYNEKFKAKATLTADKSSSAAYMQLNSLTSADSAVYFCKRALFYYTGKYQPMDYWGQGTTVTDSS
VL: DIVMTQSQKFMSTTAGDRVSITCKASQNVGSAVVWYQQKPGRSPKLLIYSSSIRYTGVPDRFTGSGSGTDFTLTINSVQSEDLADYFCQQYNSFPLTFGAGTKLEIK
notes: also called Ab66; mab 66
As to B14, the binding result in experiment [3] is listed as “no binding (tested: 10 gg/mL (so in the source))”.

B15: Clone_402 (antibody, V domains shown)
VH: QIQLVQSGPELKKPGETVKISCKASGYTFTTFGMSWVKQAPGKGLKWMGWINTNSGMPTYTDDFRGRFAFSLETSASTAYLQISSLKNEDTATYFCARKSLFYWGQGTTLTVSS
VL: DVVMTQSPLTLSVTIGQPASISCRSSRSLLDSDGKTKLHWLLQRPGQSPKSLIYLVSKLDSGVPNRFTGGGSGTDFTLKINRVEAEDLGVYYCWQGTHFPWTFGVGTKLEIK
As for B15, the binding result in experiment [3] was “no binding (tested: 10 gg/mL (so in the source))”.

B16: Clone_453 (antibody, V domains shown)
VH: QVQLKQSGPGQVAPSQSLSITCTVSGFSLINSAVHWVRQSPGKGLEWLGVIWSDGSTDYNTAFISRLSISRDNSKSQVFFKMRSLQVDDTAVYYCARNGRLGNAMDYWGQGTSVTVSS
VL: DIVMTQSPSSLAVSVGEKVTMSCKSSQSLFSSRTRKNYLAWYQQKPGQSPKLLIYWASTRESGVPYRFTGSGSGTDFTLTISSVQTEDLAVYYCKQSYNLLTFGAGTKLEL
As for B16, the binding result in experiment [1] and in experiment [2] was “no binding (tested: 10 gg/mL (so in the source))” each time.
